{
  "source": "patent US20250144178A1",
  "about": "“PHARMACEUTICAL COMPOSITION FOR CANCER TREATMENT COMPRISING FUSION PROTEIN INCLUDING IL-12 AND ANTI-FAP ANTIBODY AND ANTICANCER AGENT” (KANAPH THERAPEUTICS INC., priority 2022, published 2025)",
  "key": {"CT26 tumor": {"test_system": "CT26 tumor", "test": "Tumor re-challenge in mice with complete response, CT26 tumor", "assay_type": "in vivo, BALB/c mice", "conditions": "mice with complete response after T1.01m, right flank, FIG. 26", "description": "(§1) In order to evaluate whether tumor recurrence may be inhibited by inducing long-term immune response after fusion protein treatment, tumor re-challenge was performed in subjects in which complete response was achieved by administration of T1.01m in a tumor model transplanted with CT26 cells overexpressing FAP. BALB/c mice without a treatment history were used as control mice.\n(§2) 4T1 cells were subcutaneously injected into the left flank and CT26 cells were subcutaneously injected into the right flank of control mice and mice in which complete response was achieved by administration of T1.01m, to obtain a tumor recurrence model.\n(§3) CT26 cells and 4T1 cells were suspended in Hanks' Balanced salt solution (HBSS, Gibco) at a concentration of 1×10^6 cells/100 μl, respectively, and CT26 cells were transplanted into the subcutaneous region of the right flank of the mice using a 1 cc syringe (25G). Tumor formation and growth were evaluated by subcutaneous transplantation of 4T1 cells into the left flank of the same mice. Nine animals were used for the control group, and seven animals were used for the test group."}, "HEK-Blue IL-12 cells": {"test_system": "HEK-Blue IL-12 cells", "test": "Signaling ability in IL-12 recognizing cells (STAT4 inducible SEAP reporter)", "assay_type": "cell-based, human", "conditions": "serial dilution from 4 nM, 24 hours, FIG. 18", "description": "The HEK-Blue IL-12 cell line transformed with the IL-12 receptor gene and the STAT4 inducible SEAP reporter gene into HEK293 cells, which are human embryonic kidney fibroblasts, was obtained from Invivogen (San Diego, USA). The HEK-Blue IL-12 cells were maintained in DMEM (GIBCO) containing 10% FBS (GIBCO), 100 μg/ml Normocin and 1×HEK-Blue selection.\nSpecifically, the HEK-Blue IL-12 cell line, which is an IL-12 recognizing cell, was diluted to 2.8×10^5 cells/ml and dispensed at 180 μl/well. Recombinant human IL-12, T1.01m, T1.02m, T1.03m and T1.12m were suspended at 4 nM and diluted by serial dilution. HEK-Blue IL-12 cells were treated with the diluted recombinant human IL-12, T1.01m, T1.02m, T1.03m and T1.12m. After 24 hours of treatment, the cell supernatant was collected and mixed with QUANTI-Blue Solution (Invivogen) in a 96-well plate. The reporter expression level was measured at 620 nm using a spectrophotometer (Thermo Fisher)."}, "[1]": {"test_system": "mouse FAP overexpressing B16F10 melanoma", "test": "Melanoma model, mouse FAP overexpressing B16F10", "assay_type": "in vivo, C57BL/6J mice", "conditions": "10 μg and 100 μg i.v. once, control PBS, FIG. 30", "description": "In order to identify the anticancer effect through immune activation of the fusion protein, mouse FAP was overexpressed in the mouse melanoma cell line B16F10, which is known to have little immune cell infiltration, and then transplanted into C57BL/6J mice, and the tumor growth inhibitory ability was evaluated.\nSpecifically, the cells in culture were resuspended in Hanks' Balanced salt solution (HBSS, Gibco), and then 100 μl of 1×10^6 tumor cells per each mouse were transplanted into the subcutaneous region of the left the dorsal flank side of 6-week-old C57BL/6J mice.\nNext, for drug efficacy evaluation, when the size of the tumor reached 70 to 100 mm^3, the mice were randomly divided into groups. As the control, PBS was administered, and as the test group, T1.03m was intravenously administered once at a dose of 10 μg and 100 μg."}, "4T1 tumor": {"test_system": "4T1 tumor", "test": "Tumor re-challenge in mice with complete response, 4T1 tumor", "assay_type": "in vivo, BALB/c mice", "conditions": "mice with complete response after T1.01m, left flank, FIG. 27", "description": "as §1, §2, §3"}},
  "data": [
    {"molecule": "T1.01m: K&H bispecific: anti-mu FAP/mu IL-12, mu IgG2a DANG (seq18, seq19, seq20) (antibody) heavy: QVQLQQSGAELARPGASVNLSCKASGYTFTNNGINWLKQRTGQGLEWIGEIYPRSTNTLYNEKFKGKATLTADRSSNTAYMELRSLTSEDSAVYFCARTLTAPFAFWGQGTLVTVSAAKTTAPSVYPLAPVCGDTTGSSVTLGCLVKGYFPEPVTLTWNSGSLSSGVHTFPAVLQSDLYTLSSSVTVTSSTWPSQSITCNVAHPASSTKVDKKIEPRGPTIKPCPPCKCPAPNLLGGPSVFIFPPKIKDVLMISLSPIVTCVVVAVSEDDPDVQISWFVNNVEVHTAQTQTHREDYGSTLRVVSALPIQHQDWMSGKEFKCKVNNKDLPAPIERTISKPKGSVRAPQVYVLPPPEEEMTKKQVTLWCMVTDFMPEDIYVEWTNNGKTELNYKNTEPVLDSDGSYFMYSKLRVEKKNWVERNSYSCSVVHEGLHNHHTTKSFSRTPGK light: QIVLTQSPAIMSASPGEKVTMTCSASSGVNFMHWYQQKSGTSPKRWIFDTSKLASGVPARFSGSGSGTSYSLTISSMEAEDAATYYCQQWSFNPPTFGGGTKLEIKRADAAPTVSIFPPSSEQLTSGGASVVCFLNNFYPKDINVKWKIDGSERQNGVLNSWTDQDSKDSTYSMSSTLTLTKDEYERHNSYTCEATHKTSTSPIVKSFNRNEC MWELEKDVYVVEVDWTPDAPGETVNLTCDTPEEDDITWTSDQRHGVIGSGKTLTITVKEFLDAGQYTCHKGGETLSHSHLLLHKKENGIWSTEILKNFKNKTFLKCEAPNYSGRFTCSWLVQRNMDLKFNIKSSSSSPDSRAVTCGMASLSAEKVTLDQRDYEKYSVSCQEDVTCPTAEETLPIELALEARQQNKYENYSTSFFIRDIIKPDPPKNLQMKPLKNSQVEVSWEYPDSWSTPHSYFSLKFFVRIQRKKEKMKETEEGCNQKGAFLVEKTSTEVQCKGGNVCVQAQDRYYNSSCSKWACVPCRVRSGGGGSGGGGSGGGGSRVIPVSGPARCLSQSRNLLKTTDDMVKTAREKLKHYSCTAEDIDHEDITRDQTSTLKTCLPLELHKNESCLATRETSSTTRGSCLPPQKTSLMMTLCLGSIYEDLKMYQTEFQAINAALQNHNHQQIILDKGMLVAIDELMQSLNHNGETLRQKPPVGEADPYRVKMKLCILLHAFSTRVVTINRVMGYLSSAGGGGSGGGGSEPRGPTIKPCPPCKCPAPNLLGGPSVFIFPPKIKDVLMISLSPIVTCVVVAVSEDDPDVQISWFVNNVEVHTAQTQTHREDYGSTLRVVSALPIQHQDWMSGKEFKCKVNNKDLPAPIERTISKPKGSVRAPQVYVLPPPEEEMTKKQVTLSCAVTDFMPEDIYVEWTNNGKTELNYKNTEPVLDSDGSYFMVSKLRVEKKNWVERNSYSCSVVHEGLHNHHTTKSFSRTPGK", "values": [
      {"measurement": "growth of re-challenged CT26 tumor", "setting": "CT26 tumor", "result": "the growth of the CT26 tumor was inhibited"},
      {"measurement": "IL-12 recognition / STAT4 reporter gene expression (620 nm absorbance)", "setting": "HEK-Blue IL-12 cells", "result": "IL-12 was recognized, and STAT4 expressed a reporter gene by inducing phosphorylation"},
      {"measurement": "tumor growth inhibitory ability compared to the control", "setting": "[1]", "result": "high tumor growth inhibitory ability"},
      {"measurement": "growth of re-challenged 4T1 tumor", "setting": "4T1 tumor", "result": "the 4T1 tumor grew"}
    ]}
  ]
}
